Test results reported in article PMC10746525.

B1: MBP-TRAK1_(342-431) [human] / MIRO1_(177-591) [human] (parent)
chain 1: EAQEELKNLRNKTMPNTTSRRYHSLGLFPMDSLAAEIEGTMRKELQLEEAESPDITHQKRVFETVRNINQVVKQRSLTPSPMNIPGSNQS
chain 2: EEKEMKPACIKALTRIFKISDQDNDGTLNDAELNFFQRICFNTPLAPQALEDVKNVVRKHISDGVADSGLTLKGFLFLHTLFIQRGRHETTWTVLRRFGYDDDLDLTPEYLFPLLKIPPDCTTELNHHAYLFLQSTFDKHDLDRDCALSPDELKDLFKVFPYIPWGPDVNNTVCTNERGWITYQGFLSQWTLTTYLDVQRCLEYLGYLGYSILTEQESQASAVTVTRDKKIDLQKKQTQRNVFRCNVIGVKNCGKSGVLQALLGRNLMRQKKIREDHKSYYAINTVYVYGQEKYLLLHDISESEFLTEAEIICDVVCLVYDVSNPKSFEYCARIFKQHFMDSRIPCLIVAAKSDLHEVKQEYSISPTDFCRKHKMPPPQAFTCNTADAPSKDIFVKLTTMAMYPHVTQADLKSST
B2: MBP-TRAK1_(342-431) [human] / MIRO1_(177-591) [human] (parent)
chain 1: B1 chain 2
chain 2: B1 chain 1

Key:
MIRO1_(177-591) [human] [1] = variants of: B1; test: ITC; conditions: with MIRO1_(177-591) [human]; 370 µM MBP-TRAK1(342-431) 400KR401 to AA in syringe, 30 µM MIRO1(177-591) in cell; ITC buffer with 5 mM EGTA
MIRO1_(177-591) [human] [2] = variants of: B2; test: ITC; conditions: with MIRO1_(177-591) [human]; 370 µM MIRO1(177-591) in syringe, 35 µM MBP-TRAK1(342-431) 400KR401 to AA in cell; ITC buffer with 5 mM EGTA

| Kd (MIRO1_(177-591) [human] [1]) [µM] | screen value (MIRO1_(177-591) [human] [1]) | Kd (MIRO1_(177-591) [human] [2]) [µM] | screen value (MIRO1_(177-591) [human] [2]) | Variant |
| --- | --- | --- | --- | --- |
| 9.62 | 0.91 |  |  | chain 1 K59A R60A |
|  |  | 7.52 | 0.74 | chain 2 K59A R60A |
